From article PMC8195987, “Structural basis for plazomicin antibiotic action and resistance” (Communications Biology, 2021)

Target: the molecule itself
Test: crystal structure; AAC(2′)-Ia at 10 mg/mL with 10 mM acetyl-CoA and 10 mM plazomicin, sitting-drop vapor diffusion at 4 °C, reservoir 0.2 M LiCl and 40% (v/v) MPD; product-bound state (acetylated plazomicin and CoA)

B1: AAC(2′)-Ia from Providencia stuartii (enzyme)
chain: MGIEYRSLHTSQLTLSEKEALYDLLIEGFEGDFSHDDFAHTLGGMHVMAFDQQKLVGHVAIIQRHMALDNTPISVGYVEAMVVEQSYRRQGIGRQLMLQTNKIIASCYQLGLLSASDDGQKLYHSVGWQIWKGKLFELKQGSYIRSIEEEGGVMGWKADGEVDFTASLYCDFRGGDQW
notes: AAC(2′)-Ia, aminoglycoside 2′-N-acetyltransferase of Providencia stuartii; synthesized aac(2′)-Ia gene cloned in pET-15b between NdeI and BamHI, N-terminal HIS-tag followed by a thrombin cleavage site; the tag was removed with thrombin; Homodimer in the crystal, each unit with acetylated plazomicin and CoA in the active site; also called aminoglycoside 2′-N-acetyltransferase; AAC(2′)-Ia …
Question: Does B1 bind?
Answer: Result: binds
